Results taken from US20040171019A1, “PIN1 peptidyl-prolyl isomerase polypeptides, their crystal structures, and use thereof for drug design” (Agouron Pharmaceuticals, Inc., priority 2002, published 2004).

Target: 6His-PPIase domain of PIN1 (human) (UniProt Q13526)
Assay: fluorescence polarization competition; free Pintide displaces fluorescein-tagged Pintide from the 6His-PPIase domain of PIN1

IC50: 7 to 10 µM
Substance: Pintide (WFYpSPFLE) without the fluorescein tag (peptide)
